Experimental data taken from the supplement of paper PMC10567573.

B1: MYBL2 (parent)
chain: FPNRTDQQCQYRWLRVLNPDLVKG
B2: FAM116A (parent)
chain: TVHEVDIFRCFCPVFLHSQMLWEL

Variants of: B1
Assay: protein stability index of a GFP-peptide fusion (GPS, HEK-293T) (PSI 1-6); higher = more stable
Details: c terminus: a fixed tail appended
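Also: lentivirally expressed fusions sorted by FACS into six bins by GFP to DsRed ratio, PSI derived from sequencing read proportions per bin multiplied by bin number.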

Protein stability index: each site, then its substitutions
T5: R 1.73; V 1.8; K 2.29; A 2.73; P 2.05; D 1.98; Q 1.76; C 1.57; I 2.29; E 2.29; M 2.33; L 1.64; S 1.86; F 1.49; H 1.74; Y 1.95; W 2; G 1.53; N 2.01
D6: F 2.36; M 1.27; K 2.06; P 1.81; E 1.61; N 1.8; G 1.51; C 1.45; L 1.97; I 2.07; Q 2.91; H 1.94; R 1.41; A 1.7
P2: T 1.81; M 1.63; L 2.62; H 1.86; I 1.13; R 2.49; W 1.61; K 2.3; D 2.06; F 1.69; N 2.06; E 2.67; A 2.17; Y 2.2; C 1.84; Q 1.93; V 3.52; S 2.3; G 1.88
N3: M 1.72; F 1.63; R 2.1; E 1.96; C 1.56; P 1.93; Y 1.87; T 1.91; L 1.94; G 1.77; Q 2.04; A 2.27; K 1.77; I 1.82; S 1.78; H 1.98; D 1.83; W 1.31; V 1.91
F1: A 2.54; I 2.6; R 2.79; S 2.51; E 2.56; M 2.37; T 2.75; V 2.31; K 2.14; N 2.47; D 3.24; L 2.08; Q 2.76; W 2; P 3; G 3.23; H 2.44; C 2.24; Y 1.95
R4: S 1.95; H 2.47; M 2.2; A 1.99; K 2.11; N 1.94; T 2.02; D 2.27; W 2.23; G 1.74; C 1.51; F 2.22; L 2.65; Q 2.19; Y 1.98; V 1.96; I 1.56; P 2.64; E 2.51

Variants of: B2
Assay: as above
Details: c terminus: a fixed tail appended

Protein stability index of substitutions, site by site:
V2: A 1.77; Q 2.08; M 2.05; R 3.97; E 1.04; C 2.57; W 2.7; Y 3.92; K 1.73; N 1.76
F11: K 2.82; G 2.22; C 2.65; H 2.82; N 2.04; Q 1.64; R 1.38
C10: S 2.89; M 3.4; R 2; H 4.15; V 2.69; P 4.46; T 1.93; K 2.63
P13: Y 1.72; I 3.13; L 1; A 2.36; K 2.83; N 1.5
E4: S 4.26; Y 3.35; D 1.46; C 1.53; H 3.03; Q 1.79; I 3.19; K 3.86; P 3.77; R 3.14; T 3.43
E23: N 3.34; S 2.37; W 2.4; H 3.28; I 3.36; R 1.77; L 3.65; Y 2.38; K 3.53
V14: G 3.26; L 4.01; Q 3.31; F 2.97; R 2.5; Y 1.89; A 2.13
